Experimental data reported in patent US8198236B2, “Methods and compositions for the treatment of cancer” (Washington University, priority 2007, dated 2012).

Molecular target: LRP5 (Homo sapiens, UniProt O75197)
Assay: 125I-Mesd binding to HEK293 cells transiently transfected with LRP5
Design: Plasmid pcDNA3.1C-Myc-hLRP5 containing the full-length human LRP5 cDNA; expressed in transfected cells; host or cells: HEK293 cells, transient transfection
Conditions: 125I-Mesd 5 nM, 4 hours at 4° C.
Experimental: Cells (2×10^5) were seeded into 12-well dishes 1 day prior to assay. Ligand-binding buffer (minimal Eagle's medium containing 0.6% BSA with a different concentration of radioligand, 0.6 ml/well) was added to cell monolayers, in the absence or the presence of 500 nM unlabeled RAP or 500 nM unlabeled Mesd, followed with incubation for 0-4 hours at 4° C. Thereafter, overlying buffer containing unbound ligand was removed, and cell monolayers were washed and lysed in low-SDS lysis buffer (62.5 mM Tris-HCl pH 6.8, 0.2% SDS, 10% v/glycerol) and counted.
To determine whether Mesd binds to other members of the LDLR family, ^125I-Mesd binding analysis was performed with four groups of cells expressing different members of the LDLR family (FIG. 2). In the first experiment, HEK293 cells were transiently transfected with cDNAs for the LDLR, LRP5, LRP6 or empty pcDNA3 vector. […]

LRP5, sequence (O75197 32-1615): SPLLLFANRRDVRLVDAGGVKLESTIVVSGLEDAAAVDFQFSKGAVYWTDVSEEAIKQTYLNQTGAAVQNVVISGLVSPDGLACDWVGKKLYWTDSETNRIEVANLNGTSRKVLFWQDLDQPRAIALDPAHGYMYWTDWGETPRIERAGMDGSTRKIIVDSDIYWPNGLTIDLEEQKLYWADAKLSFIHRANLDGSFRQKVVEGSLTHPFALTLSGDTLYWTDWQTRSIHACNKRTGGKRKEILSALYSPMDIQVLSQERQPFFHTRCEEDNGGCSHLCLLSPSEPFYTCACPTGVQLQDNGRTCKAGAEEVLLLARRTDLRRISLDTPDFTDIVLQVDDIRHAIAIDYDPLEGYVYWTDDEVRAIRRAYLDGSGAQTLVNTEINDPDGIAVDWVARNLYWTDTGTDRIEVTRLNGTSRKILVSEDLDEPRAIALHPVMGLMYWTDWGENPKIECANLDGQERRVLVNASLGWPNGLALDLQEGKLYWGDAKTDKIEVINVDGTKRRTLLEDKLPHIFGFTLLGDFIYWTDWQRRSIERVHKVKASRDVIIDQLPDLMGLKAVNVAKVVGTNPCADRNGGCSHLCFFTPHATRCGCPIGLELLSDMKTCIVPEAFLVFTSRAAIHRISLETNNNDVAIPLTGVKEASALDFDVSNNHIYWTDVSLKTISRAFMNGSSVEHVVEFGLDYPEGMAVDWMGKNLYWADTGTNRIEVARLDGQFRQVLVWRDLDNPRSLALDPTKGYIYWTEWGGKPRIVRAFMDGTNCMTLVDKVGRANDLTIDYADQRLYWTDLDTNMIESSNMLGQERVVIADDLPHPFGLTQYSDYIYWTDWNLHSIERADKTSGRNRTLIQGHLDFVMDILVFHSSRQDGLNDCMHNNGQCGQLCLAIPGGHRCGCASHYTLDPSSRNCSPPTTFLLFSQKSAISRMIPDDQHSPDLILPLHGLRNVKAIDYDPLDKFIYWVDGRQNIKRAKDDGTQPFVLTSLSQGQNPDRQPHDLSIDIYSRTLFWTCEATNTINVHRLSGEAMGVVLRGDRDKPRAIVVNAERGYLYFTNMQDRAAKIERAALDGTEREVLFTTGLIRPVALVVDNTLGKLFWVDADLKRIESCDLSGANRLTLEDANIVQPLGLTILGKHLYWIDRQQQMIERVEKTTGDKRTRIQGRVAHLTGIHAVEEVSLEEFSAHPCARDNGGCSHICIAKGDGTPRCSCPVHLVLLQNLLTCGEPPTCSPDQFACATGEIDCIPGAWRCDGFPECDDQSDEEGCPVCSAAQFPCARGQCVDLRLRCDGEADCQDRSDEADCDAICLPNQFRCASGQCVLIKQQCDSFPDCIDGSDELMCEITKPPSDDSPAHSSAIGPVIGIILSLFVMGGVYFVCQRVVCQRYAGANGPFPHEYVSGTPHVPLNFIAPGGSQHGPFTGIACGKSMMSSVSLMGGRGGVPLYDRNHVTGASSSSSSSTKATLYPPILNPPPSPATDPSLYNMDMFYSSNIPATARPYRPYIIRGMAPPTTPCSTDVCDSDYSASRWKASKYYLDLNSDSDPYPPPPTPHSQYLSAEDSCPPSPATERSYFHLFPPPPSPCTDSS

B1: Mesd: Recombinant full-length mouse Mesd expressed in E. coli, N-terminal polyhistidine tail, lacking the signal peptide (protein)
chain: ADTPGEATPPPRKKKDIRDYNDADMARLLEQWEKDDDIEEGDLPEHKRPSAPIDFSKLDPGKPESILKMTKKGKTLMMFVTVSGNPTEKETEEITSLWQGSLFNANYDVQRFIVGSDRAIFMLRDGSYAWEIKDFLVSQDRCAEVTLEGQMYPGKGGGSKEKNKTKPEKAKKKEGDRKPRASKEDNRAGSRREDL
modifications: left off: small tags and cut ends
notes: Recombinant full-length mouse Mesd expressed in E. coli, N-terminal polyhistidine tail, lacking the signal peptide
Mesd binding to LRP5: specifically binds to Mesd, albeit at lower levels compared to LRP6
